Assay results reported in patent US20140072613A1, “Compositions and Methods for Treating Cutaneous Scarring” (priority 2012, published 2014).

Experiments:
Test in all cases: biochemical
Type in all cases: biochemical
266 human kinases [1] = molecular target: 266 human kinases (Homo sapiens, UniProt P49841); conditions: 6SK3β(h); 100 μM
Method in brief: (§1)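 Steps: kinase transfers radiolabelled phosphate from ATP onto a positively charged substrate; the substrate is trapped on a negatively charged filter; bound radioactivity is counted by scintillation and compared with uninhibited (100%) activity.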

266 human kinases [2] = molecular target: 266 human kinases (Homo sapiens, UniProt Q07912); conditions: ACK1(h); 100 μM
Method in brief: as §1

266 human kinases [3] = molecular target: 266 human kinases (Homo sapiens, UniProt P12931); conditions: 100 μM
Method in brief: as §1

266 human kinases [4] = molecular target: 266 human kinases (Homo sapiens, UniProt P00533, L858R); conditions: EGFR(L858R)(h); 100 μM
Method in brief: as §1

266 human kinases [5] = molecular target: T1, 266 human kinases (Homo sapiens, UniProt Q96BR1); conditions: SGK3(h); 100 μM
T1 sequence (Q96BR1 1-496): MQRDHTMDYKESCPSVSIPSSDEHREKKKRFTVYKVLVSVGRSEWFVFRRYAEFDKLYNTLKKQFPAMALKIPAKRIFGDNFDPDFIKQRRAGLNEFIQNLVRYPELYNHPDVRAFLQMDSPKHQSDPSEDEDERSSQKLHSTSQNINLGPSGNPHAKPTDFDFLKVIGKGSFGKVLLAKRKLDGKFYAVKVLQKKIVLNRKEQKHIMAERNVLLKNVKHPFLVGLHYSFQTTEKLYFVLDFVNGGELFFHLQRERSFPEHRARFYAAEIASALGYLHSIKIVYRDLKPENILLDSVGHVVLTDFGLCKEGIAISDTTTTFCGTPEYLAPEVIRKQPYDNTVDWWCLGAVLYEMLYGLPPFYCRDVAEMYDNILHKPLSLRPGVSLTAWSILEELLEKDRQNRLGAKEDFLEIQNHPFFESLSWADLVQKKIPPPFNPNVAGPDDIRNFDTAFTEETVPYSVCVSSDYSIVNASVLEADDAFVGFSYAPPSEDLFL
Method in brief: as §1

266 human kinases [6] = molecular target: 266 human kinases (Homo sapiens, UniProt O96017, I157T); conditions: CHK2(I157T)(h); 100 μM
Method in brief: as §1

266 human kinases [7] = molecular target: 266 human kinases (Homo sapiens, UniProt Q13882); conditions: BRK(h); 100 μM
Method in brief: as §1

266 human kinases [8] = molecular target: T2, 266 human kinases (Homo sapiens, UniProt P29323); conditions: EphB2(h); 100 μM
T2 sequence (P29323 19-1055): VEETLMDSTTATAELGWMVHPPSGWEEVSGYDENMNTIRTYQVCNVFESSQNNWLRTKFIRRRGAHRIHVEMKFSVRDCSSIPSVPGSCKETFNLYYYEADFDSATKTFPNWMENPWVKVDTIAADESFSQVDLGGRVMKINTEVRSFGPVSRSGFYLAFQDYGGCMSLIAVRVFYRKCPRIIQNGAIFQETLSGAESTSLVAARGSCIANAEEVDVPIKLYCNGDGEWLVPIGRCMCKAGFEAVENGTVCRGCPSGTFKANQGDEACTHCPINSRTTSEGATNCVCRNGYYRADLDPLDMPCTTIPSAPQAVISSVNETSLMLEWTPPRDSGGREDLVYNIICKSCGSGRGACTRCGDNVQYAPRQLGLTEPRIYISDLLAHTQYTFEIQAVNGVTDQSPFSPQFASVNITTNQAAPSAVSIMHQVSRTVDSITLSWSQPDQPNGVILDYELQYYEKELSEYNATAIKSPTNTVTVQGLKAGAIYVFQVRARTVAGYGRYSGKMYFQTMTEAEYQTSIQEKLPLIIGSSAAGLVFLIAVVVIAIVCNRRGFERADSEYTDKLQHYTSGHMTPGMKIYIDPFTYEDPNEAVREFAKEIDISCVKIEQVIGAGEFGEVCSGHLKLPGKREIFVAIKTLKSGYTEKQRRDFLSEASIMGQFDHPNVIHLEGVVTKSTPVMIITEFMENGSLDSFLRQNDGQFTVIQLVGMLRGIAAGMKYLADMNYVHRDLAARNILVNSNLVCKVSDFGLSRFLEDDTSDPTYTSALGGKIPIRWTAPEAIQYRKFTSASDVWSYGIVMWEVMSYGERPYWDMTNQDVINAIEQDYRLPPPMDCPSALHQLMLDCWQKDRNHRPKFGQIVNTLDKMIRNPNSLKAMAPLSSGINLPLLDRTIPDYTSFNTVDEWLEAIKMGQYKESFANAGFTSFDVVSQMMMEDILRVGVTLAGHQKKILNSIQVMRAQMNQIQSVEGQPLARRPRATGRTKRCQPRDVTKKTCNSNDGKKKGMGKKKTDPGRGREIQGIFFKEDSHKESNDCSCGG
Method in brief: as §1

266 human kinases [9] = molecular target: 266 human kinases (Homo sapiens, UniProt Q02763, Y897S); conditions: Tie2(Y897S)(h); 100 μM
Method in brief: as §1

266 human kinases [10] = molecular target: 266 human kinases (Homo sapiens, UniProt P80192); conditions: MLK1(h); 100 μM
Method in brief: as §1

266 human kinases [11] = molecular target: 266 human kinases (Homo sapiens, UniProt Q9Y6E0); conditions: MST3(h); 100 μM
Method in brief: as §1

266 human kinases [12] = molecular target: 266 human kinases (Homo sapiens, UniProt P10721); conditions: cKit(h); 100 μM
Method in brief: as §1

266 human kinases [13] = molecular target: 266 human kinases (Homo sapiens, UniProt P08069); conditions: IGF-1R(h), 100 μM
Method in brief: as §1

266 human kinases [14] = molecular target: 266 human kinases (Homo sapiens, UniProt P08581, Y1230H); conditions: Met(Y1248H)(h); 100 μM
Method in brief: as §1

266 human kinases (Homo sapiens, UniProt Q9Y6E0), sequence (Q9Y6E0 whole entry): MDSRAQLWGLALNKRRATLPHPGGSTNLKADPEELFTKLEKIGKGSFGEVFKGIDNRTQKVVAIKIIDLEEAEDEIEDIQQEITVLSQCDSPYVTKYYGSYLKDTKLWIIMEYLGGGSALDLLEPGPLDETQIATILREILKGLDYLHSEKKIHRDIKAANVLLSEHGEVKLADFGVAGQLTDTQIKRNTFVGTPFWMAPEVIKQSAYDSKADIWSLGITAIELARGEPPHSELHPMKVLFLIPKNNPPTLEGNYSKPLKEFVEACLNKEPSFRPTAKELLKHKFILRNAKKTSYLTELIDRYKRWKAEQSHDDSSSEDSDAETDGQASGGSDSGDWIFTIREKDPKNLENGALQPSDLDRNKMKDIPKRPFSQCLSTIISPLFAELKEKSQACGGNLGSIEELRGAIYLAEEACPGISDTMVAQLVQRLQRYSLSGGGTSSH
266 human kinases (Homo sapiens, UniProt O96017, I157T), sequence (O96017 whole entry I157T): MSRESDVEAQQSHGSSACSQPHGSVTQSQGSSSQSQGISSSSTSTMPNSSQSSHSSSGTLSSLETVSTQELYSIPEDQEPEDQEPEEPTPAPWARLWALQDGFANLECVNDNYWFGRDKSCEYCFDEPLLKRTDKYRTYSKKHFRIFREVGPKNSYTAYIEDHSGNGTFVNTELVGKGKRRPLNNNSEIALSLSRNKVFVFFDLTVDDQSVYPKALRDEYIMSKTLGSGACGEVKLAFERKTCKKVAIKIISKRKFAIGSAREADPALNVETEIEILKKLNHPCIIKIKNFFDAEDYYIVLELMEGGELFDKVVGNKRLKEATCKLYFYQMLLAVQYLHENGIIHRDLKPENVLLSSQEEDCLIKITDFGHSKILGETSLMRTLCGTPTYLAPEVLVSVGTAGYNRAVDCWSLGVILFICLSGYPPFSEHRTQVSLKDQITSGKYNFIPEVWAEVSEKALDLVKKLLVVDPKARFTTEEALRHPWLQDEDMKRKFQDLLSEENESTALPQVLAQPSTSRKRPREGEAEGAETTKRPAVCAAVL
266 human kinases (Homo sapiens, UniProt P80192), sequence (P80192 whole entry): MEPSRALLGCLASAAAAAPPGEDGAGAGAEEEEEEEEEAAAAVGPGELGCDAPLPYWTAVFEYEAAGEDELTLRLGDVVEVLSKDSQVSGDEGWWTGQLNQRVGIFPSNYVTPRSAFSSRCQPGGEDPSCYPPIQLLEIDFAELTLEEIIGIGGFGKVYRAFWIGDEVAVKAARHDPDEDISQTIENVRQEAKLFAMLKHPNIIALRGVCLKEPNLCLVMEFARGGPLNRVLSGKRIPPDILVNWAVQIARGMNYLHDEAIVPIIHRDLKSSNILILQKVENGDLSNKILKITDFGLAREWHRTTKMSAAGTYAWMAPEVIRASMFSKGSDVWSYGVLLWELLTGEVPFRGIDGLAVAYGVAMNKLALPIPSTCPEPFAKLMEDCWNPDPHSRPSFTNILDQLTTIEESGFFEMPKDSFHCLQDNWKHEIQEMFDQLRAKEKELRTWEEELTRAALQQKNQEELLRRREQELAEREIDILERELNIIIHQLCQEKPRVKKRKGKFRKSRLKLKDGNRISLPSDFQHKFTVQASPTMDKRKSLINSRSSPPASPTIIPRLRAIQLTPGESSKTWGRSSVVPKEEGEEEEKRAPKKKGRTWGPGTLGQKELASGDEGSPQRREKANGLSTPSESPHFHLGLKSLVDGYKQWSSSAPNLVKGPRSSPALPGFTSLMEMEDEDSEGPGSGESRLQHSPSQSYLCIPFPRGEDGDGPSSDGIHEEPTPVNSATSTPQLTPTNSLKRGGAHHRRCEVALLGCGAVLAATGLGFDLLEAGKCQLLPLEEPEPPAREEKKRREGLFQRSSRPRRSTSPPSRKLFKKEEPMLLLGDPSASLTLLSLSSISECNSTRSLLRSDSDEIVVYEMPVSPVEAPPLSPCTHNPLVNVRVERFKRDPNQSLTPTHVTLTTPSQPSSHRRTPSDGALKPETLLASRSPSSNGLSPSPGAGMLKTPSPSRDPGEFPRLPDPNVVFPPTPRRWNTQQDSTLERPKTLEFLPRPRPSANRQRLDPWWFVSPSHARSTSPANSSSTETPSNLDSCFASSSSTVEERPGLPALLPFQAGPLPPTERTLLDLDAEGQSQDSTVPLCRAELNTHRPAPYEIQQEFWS
266 human kinases (Homo sapiens, UniProt Q02763, Y897S), sequence (Q02763 23-1124 Y897S): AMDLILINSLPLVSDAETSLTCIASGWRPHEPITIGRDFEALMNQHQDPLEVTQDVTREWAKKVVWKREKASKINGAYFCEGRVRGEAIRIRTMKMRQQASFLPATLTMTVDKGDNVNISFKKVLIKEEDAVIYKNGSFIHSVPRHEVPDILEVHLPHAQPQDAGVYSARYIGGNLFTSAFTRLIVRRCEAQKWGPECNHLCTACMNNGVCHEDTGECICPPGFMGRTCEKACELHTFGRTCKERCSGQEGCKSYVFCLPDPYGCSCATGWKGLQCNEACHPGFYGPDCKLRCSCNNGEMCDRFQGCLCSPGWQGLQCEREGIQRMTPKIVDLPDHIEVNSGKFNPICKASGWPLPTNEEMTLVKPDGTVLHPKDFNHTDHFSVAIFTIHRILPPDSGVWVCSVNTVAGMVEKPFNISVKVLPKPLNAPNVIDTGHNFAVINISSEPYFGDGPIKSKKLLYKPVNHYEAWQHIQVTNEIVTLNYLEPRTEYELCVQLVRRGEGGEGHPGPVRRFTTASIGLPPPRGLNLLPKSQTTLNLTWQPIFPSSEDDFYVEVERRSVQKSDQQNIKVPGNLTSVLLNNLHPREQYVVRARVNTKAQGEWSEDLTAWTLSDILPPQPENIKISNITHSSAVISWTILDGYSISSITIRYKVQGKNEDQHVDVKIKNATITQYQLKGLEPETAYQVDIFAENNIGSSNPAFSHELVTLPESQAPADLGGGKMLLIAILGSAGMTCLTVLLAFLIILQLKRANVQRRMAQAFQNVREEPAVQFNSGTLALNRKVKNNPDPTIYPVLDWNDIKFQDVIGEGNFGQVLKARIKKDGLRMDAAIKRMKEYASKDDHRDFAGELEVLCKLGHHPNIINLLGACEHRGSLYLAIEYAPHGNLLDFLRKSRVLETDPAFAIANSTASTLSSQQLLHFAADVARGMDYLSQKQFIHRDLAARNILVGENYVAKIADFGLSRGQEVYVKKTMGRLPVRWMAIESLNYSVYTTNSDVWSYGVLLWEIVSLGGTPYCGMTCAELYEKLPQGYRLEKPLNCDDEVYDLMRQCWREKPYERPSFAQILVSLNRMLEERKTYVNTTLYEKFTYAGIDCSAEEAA
266 human kinases (Homo sapiens, UniProt Q07912), sequence (Q07912 whole entry): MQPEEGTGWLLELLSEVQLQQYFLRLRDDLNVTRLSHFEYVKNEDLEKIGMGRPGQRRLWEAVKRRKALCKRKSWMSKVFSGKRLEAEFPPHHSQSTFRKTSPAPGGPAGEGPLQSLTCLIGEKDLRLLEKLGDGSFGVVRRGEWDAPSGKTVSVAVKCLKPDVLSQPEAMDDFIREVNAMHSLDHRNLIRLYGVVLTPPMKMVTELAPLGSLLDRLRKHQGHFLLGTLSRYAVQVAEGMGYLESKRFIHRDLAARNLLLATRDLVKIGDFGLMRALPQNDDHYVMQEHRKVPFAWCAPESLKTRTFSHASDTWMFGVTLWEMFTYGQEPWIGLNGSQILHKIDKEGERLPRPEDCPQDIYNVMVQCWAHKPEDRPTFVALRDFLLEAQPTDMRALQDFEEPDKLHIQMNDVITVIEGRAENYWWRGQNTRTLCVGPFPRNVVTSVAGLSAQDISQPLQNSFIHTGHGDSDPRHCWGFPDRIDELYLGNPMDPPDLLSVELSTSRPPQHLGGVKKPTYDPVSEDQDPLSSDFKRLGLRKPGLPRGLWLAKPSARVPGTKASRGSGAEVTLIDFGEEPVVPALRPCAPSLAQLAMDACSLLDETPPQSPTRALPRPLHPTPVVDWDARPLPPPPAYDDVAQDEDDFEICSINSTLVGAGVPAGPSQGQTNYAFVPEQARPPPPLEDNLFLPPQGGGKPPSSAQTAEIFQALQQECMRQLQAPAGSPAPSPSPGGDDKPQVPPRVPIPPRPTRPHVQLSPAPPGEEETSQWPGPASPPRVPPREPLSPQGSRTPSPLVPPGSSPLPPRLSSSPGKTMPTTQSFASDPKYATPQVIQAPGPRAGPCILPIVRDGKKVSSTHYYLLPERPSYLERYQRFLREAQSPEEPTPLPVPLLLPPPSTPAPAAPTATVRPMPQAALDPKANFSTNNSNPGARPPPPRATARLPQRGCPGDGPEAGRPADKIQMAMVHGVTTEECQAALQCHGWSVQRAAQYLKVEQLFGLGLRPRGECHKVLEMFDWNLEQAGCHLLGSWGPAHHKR
266 human kinases (Homo sapiens, UniProt P49841), sequence (P49841 whole entry): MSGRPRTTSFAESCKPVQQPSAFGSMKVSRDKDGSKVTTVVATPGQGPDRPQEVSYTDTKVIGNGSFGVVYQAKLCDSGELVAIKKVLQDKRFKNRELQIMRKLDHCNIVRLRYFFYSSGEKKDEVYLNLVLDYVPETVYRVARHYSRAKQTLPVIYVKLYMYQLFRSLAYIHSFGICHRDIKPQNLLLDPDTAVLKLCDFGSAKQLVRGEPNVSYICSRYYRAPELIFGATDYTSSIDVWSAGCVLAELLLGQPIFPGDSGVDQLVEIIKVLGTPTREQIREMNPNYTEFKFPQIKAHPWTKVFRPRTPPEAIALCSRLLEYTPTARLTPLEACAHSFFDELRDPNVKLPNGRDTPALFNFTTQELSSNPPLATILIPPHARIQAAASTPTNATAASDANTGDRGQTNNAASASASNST

Sequence	% activity (266 human kinases [1]) [%]	% activity (266 human kinases [2]) [%]	% activity (266 human kinases [3]; Src(1-530)(h)) [%]	% activity (266 human kinases [3]; cSRC(h)) [%]	% activity (266 human kinases [4]) [%]	% activity (266 human kinases [5]) [%]	% activity (266 human kinases [6]) [%]	% activity (266 human kinases [7]) [%]	% activity (266 human kinases [8]) [%]	% activity (266 human kinases [9]) [%]	% activity (266 human kinases [10]) [%]	% activity (266 human kinases [11]) [%]	% activity (266 human kinases [12]) [%]	% activity (266 human kinases [13]; activated) [%]	% activity (266 human kinases [14]) [%]	% activity (266 human kinases [13]) [%]
HRRIKAWLKKIKALARQLGVAA (mammal) [MMI-0500]	238	64	21	30	26	−3	3	41	70	80	43	4	45	45	126	–
YARAAARQARAKALNRQLGVA (mammal) [MMI-0200]	132	97	75	32	120	58	85	127	128	85	84	95	110	94	153	49
